In IntAct's records for PubMed 17540172:

B1: "Lethal(3)malignant brain tumor-like protein 1" (Homo sapiens), Q9Y468 (parent)
chain: MHLVAGDSPGSGPHLPATAFIIPASSATLGLPSSALDVSCFPREPIHVGAPEQVAGCEPVSATVLPQLSAGPASSSTSTVRLLEWTEAAAPPPGGGLRFRISEYKPLNMAGVEQPPSPELRQEGVTEYEDGGAPAGDGEAGPQQAEDHPQNPPEDPNQDPPEDDSTCQCQACGPHQAAGPDLGSSNDGCPQLFQERSVIVENSSGSTSASELLKPMKKRKRREYQSPSEEESEPEAMEKQEEGKDPEGQPTASTPESEEWSSSQPATGEKKECWSWESYLEEQKAITAPVSLFQDSQAVTHNKNGFKLGMKLEGIDPQHPSMYFILTVAEVCGYRLRLHFDGYSECHDFWVNANSPDIHPAGWFEKTGHKLQPPKGYKEEEFSWSQYLRSTRAQAAPKHLFVSQSHSPPPLGFQVGMKLEAVDRMNPSLVCVASVTDVVDSRFLVHFDNWDDTYDYWCDPSSPYIHPVGWCQKQGKPLTPPQDYPDPDNFCWEKYLEETGASAVPTWAFKVRPPHSFLVNMKLEAVDRRNPALIRVASVEDVEDHRIKIHFDGWSHGYDFWIDADHPDIHPAGWCSKTGHPLQPPLGPREPSSASPGGCPPLSYRSLPHTRTSKYSFHHRKCPTPGCDGSGHVTGKFTAHHCLSGCPLAERNQSRLKAELSDSEASARKKNLSGFSPRKKPRHHGRIGRPPKYRKIPQEDFQTLTPDVVHQSLFMSALSAHPDRSLSVCWEQHCKLLPGVAGISASTVAKWTIDEVFGFVQTLTGCEDQARLFKDEARIVRVTHVSGKTLVWTVAQLGDLVCSDHLQEGKGILETGVHSLLCSLPTHLLAKLSFASDSQY

Variants of: B1
Conditions: with h14_human H1-4, P10412
Chain of h14_human H1-4, P10412 (P10412 whole entry): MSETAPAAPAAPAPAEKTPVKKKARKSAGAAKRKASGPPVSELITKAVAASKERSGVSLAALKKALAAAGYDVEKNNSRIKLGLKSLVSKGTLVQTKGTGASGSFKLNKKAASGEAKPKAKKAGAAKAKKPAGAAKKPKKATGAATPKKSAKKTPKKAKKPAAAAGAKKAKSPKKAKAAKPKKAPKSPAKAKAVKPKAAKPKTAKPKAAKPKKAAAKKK

Variant | effect of a mutation on the interaction
D423N | decreasing interaction

Variants of: B1
Conditions: with h4_human H4C16, P62805

Variant | effect of a mutation on the interaction
D423N | decreasing interaction

Variants of: B1
Conditions: with h14_human H1-4, P10412
Remark: another data set of the same source

Variant | effect of a mutation on the interaction
F447A | decreasing interaction
